Experimental data as given in patent US20250270273A1 (NEKTAR THERAPEUTICS, published 2025).

Key:
[1] = biological target: T1, IFN-γ receptor (IFNGR; IFNGR1 and IFNGR2) on human cells (human) (UniProt P15260); experiment: cell-based or functional assay
T1 sequence (looked up) 1: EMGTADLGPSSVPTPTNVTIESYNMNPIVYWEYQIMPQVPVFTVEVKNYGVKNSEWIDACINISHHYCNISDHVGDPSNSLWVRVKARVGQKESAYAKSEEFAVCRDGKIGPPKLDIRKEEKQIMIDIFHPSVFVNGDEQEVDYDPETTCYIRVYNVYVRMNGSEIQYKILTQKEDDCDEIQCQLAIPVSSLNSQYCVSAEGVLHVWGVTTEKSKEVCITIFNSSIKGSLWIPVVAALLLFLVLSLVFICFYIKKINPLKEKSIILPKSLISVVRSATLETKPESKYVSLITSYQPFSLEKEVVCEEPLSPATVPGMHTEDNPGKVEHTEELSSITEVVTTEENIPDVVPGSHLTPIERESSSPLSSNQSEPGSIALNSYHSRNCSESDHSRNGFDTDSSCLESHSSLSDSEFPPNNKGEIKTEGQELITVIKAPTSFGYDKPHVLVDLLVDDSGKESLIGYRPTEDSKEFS
T1 sequence (looked up) 2: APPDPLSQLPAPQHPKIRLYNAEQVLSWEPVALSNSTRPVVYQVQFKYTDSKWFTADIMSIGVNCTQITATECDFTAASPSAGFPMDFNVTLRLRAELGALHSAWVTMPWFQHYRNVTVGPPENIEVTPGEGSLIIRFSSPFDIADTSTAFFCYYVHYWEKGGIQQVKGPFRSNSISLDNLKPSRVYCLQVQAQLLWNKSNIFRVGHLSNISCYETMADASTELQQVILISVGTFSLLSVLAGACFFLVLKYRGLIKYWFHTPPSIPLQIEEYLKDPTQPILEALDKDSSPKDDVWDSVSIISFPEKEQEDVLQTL

[2] = biological target: T2, IFNγR1 fused to the constant region of the antibody IgG1 (UniProt P15260 18-245, limits assumed); experiment: SPR (Biacore, CM5 chip), IFNγR1-IgG1 Fc captured by anti-human IgG, analyte injected
T2 construct: also called IFNGR1; Interferon gamma receptor 1 fused to the Fc region; not shown: constant region (Fc) of IgG1, captured on the chip by an anti-human IgG antibody
T2 sequence (looked up): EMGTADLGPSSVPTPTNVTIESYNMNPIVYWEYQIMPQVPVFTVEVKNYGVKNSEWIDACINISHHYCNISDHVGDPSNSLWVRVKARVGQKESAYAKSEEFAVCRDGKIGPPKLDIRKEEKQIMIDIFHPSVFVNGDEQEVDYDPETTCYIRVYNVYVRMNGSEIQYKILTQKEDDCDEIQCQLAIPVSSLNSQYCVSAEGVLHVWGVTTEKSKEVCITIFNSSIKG
Method: Briefly, the surface of a BAcore™ CM5 sensor chip was coated with anti-human IgG antibody comprising IFNγR1 fused to the constant region of the antibody IgG₁.
Each of the IFN-γ-b protein, the M135C, S98C, and S66C cysteine muteins, and Compounds 1, 2, and 3 were separately injected onto the sensor chip which was coated with IFNγR1. The affinities were measured by determining the kinetic on-rate (kₒₙ) and the kinetic off-rate (koff) rates separately, and the ratio between kₒₙ and koff was used to calculate the Kd values with the results shown in Table 9.

[3] = biological target: T3, IFN-γ receptor (IFNGR; IFNGR1 and IFNGR2) on human cells (human, UniProt P15260 18-489; P38484 22-337); experiment: cell-based or functional assay
T3 sequence (looked up) 1: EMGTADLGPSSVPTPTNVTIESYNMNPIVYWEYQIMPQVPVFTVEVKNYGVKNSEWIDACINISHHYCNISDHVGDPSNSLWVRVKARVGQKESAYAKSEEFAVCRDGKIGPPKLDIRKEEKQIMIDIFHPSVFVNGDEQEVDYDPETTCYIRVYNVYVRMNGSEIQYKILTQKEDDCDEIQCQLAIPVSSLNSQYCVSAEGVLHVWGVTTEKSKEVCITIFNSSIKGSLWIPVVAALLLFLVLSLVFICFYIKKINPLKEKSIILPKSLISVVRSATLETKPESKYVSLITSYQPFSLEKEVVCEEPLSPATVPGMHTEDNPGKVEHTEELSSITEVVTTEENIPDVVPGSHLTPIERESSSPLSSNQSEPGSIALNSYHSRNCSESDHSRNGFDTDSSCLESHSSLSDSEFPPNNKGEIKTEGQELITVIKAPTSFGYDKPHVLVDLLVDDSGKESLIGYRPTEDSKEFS
T3 sequence (looked up) 2: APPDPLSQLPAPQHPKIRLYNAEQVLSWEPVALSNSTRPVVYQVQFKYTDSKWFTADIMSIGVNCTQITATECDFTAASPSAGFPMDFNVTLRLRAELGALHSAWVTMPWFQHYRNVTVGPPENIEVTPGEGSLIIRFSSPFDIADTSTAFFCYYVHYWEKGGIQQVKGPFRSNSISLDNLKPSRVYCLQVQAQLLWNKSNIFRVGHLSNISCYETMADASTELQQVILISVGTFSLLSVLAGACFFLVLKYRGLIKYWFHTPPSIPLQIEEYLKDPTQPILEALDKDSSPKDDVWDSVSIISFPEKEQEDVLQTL

[4] = biological target: T3, IFN-γ receptor (IFNGR; IFNGR1 and …); experiment: cell-based or functional assay; remark: listed apart in the source

Molecule: Compound 5, mono-mPEG2-MAL-20K-rhIFN-γ-1b-S66C (from UniProt P01579 24-162) (ligand)
- EC50 in HT-29 cells, MHCI [1]: 0.023 ng/mL
- EC50 in HT-29 cells, MHCII [1]: 0.27 ng/mL
- EC50 in HT-29 cells, PD-L1 [1]: 0.37 ng/mL
- EC50 in HT-29 cells, pSTAT1 [1]: 1.3 ng/mL

Molecule: Compound 4, mono-mPEG2-MAL-40K-rhIFN-γ-1b-M135C (from UniProt P01579 24-162) (ligand)
- EC50 (ng/mL)-% pSTAT1, CD14+CD16+ (Intermediate) monocytes of human PBMCs [1]: 10.1 ng/mL
- EC50 (ng/mL)-% pSTAT1, CD14+CD16- (Classical) monocytes of human PBMCs [1]: 32.6 ng/mL
- EC50 (ng/mL)-% pSTAT1, CD14loCD16hi (Non-classical) monocytes of human PBMCs [1]: 11.7 ng/mL
- EC50 (ng/mL)-MFI of pSTAT1, Classical monocytes of human PBMCs [1]: 152 ng/mL
- EC50 (ng/mL)-MFI of pSTAT1, Intermediate monocytes of human PBMCs [1]: 84.2 ng/mL
- EC50 (ng/mL)-MFI of pSTAT1, Non-classical monocytes of human PBMCs [1]: 97.5 ng/mL
- EC50 in HT-29 cells, MHCI [1]: 0.3 ng/mL
- EC50 in HT-29 cells, MHCII [1]: 3.1 ng/mL
- EC50 in HT-29 cells, PD-L1 [1]: 3.6 ng/mL
- EC50 in HT-29 cells, pSTAT1 [1]: 180 ng/mL

Molecule: Compound 6, mono-mPEG2-MAL-20K-rhIFN-γ-1b-N98C (from UniProt P01579 24-162) (ligand)
- EC50 in HT-29 cells, MHCI [1]: 0.047 ng/mL
- EC50 in HT-29 cells, MHCII [1]: 0.86 ng/mL
- EC50 in HT-29 cells, PD-L1 [1]: 1.3 ng/mL
- EC50 in HT-29 cells, pSTAT1 [1]: 1.2 ng/mL

Molecule: Compound 7, ring-opened mono-mPEG2-MAL-20K-rhIFN-γ-1b-M135C (from UniProt P01579 24-162) (ligand)
- EC50 in HT-29 cells, MHCI (Compound 7 (1)) [1]: 5.3 ng/mL
- EC50 in HT-29 cells, MHCII (Compound 7 (1)) [1]: 150 ng/mL
- EC50 in HT-29 cells, PD-L1 (Compound 7 (1)) [1]: 190 ng/mL
- EC50 in HT-29 cells, pSTAT1 (Compound 7 (2)) [1]: 969 ng/mL

B1: rhIFN-γ-1b (wild-type recombinant human interferon-γ-1b) (ligand)
chain: MQDPYVKEAENLKKYFNAGHSDVADNGTLFLGILKNWKEESDRKIMQSQIVSFYFKLFKNFKDDQSIQKSVETIKEDMNVKFFNSNKKKRDDFEKLTNYSVTDLNVQRKAIHELIQVMAELSPAAKTGKRKRSQMLFRGR
notes: also called wt (rhIFN-γ-1b); WT IFN-γ-1b (Actimmune)
- Kd [2]: 0.0655 nM
- koff [2]: 0.000701 s⁻¹
- kon [2]: 1.07e+07 M⁻¹ s⁻¹
- EC50 in HT-29 cells, MHCI [3]: 0.079 ng/mL
- EC50 in HT-29 cells, MHCII [3]: 0.53 ng/mL
- EC50 in HT-29 cells, PD-L1 [3]: 0.69 ng/mL
- EC50 in HT-29 cells, pSTAT1 [3]: 1 ng/mL
- EC50 (ng/mL)-% pSTAT1, CD14+CD16+ (Intermediate) monocytes of human PBMCs [4]: 0.015 ng/mL
- EC50 (ng/mL)-% pSTAT1, CD14+CD16- (Classical) monocytes of human PBMCs [4]: 0.035 ng/mL
- EC50 (ng/mL)-% pSTAT1, CD14loCD16hi (Non-classical) monocytes of human PBMCs [4]: 0.018 ng/mL
- EC50 (ng/mL)-MFI of pSTAT1, Classical monocytes of human PBMCs [4]: 0.3 ng/mL
- EC50 (ng/mL)-MFI of pSTAT1, Intermediate monocytes of human PBMCs [4]: 0.24 ng/mL
- EC50 (ng/mL)-MFI of pSTAT1, Non-classical monocytes of human PBMCs [4]: 0.26 ng/mL
